Publication PMC4757414, “Evidences of Changes in Surface Electrostatic Charge Distribution during Stabilization of HPV16 Virus-Like Particles” (PLoS ONE, 2016)

Target: the molecule itself
Experiment: static light scattering; Debye plot (Zimm equation) of purified HPV16 VLPs in dilute solution, initial (0 h) and final (48 h) states; T = 298 K; 0.5 M NaCl, 50 mM sodium citrate, 1 mM CaCl2, pH 6

B1: HPV16 L1 protein (assembled into HPV16 virus-like particles) (natural protein)
chain: MSLWLPSEATVYLPPVPVSKVVSTDEYVARTNIYYHAGTSRLLAVGHPYFPIKKPNNNKILVPKVSGLQYRVFRIHLPDPNKFGFPDTSFYNPDTQRLVWACVGVEVGRGQPLGVGISGHPLLNKLDDTENASAYAANAGVDNRECISMDYKQTQLCLIGCKPPIGEHWGKGSPCTNVAVNPGDCPPLELINTVIQDGDMVDTGFGAMDFTTLQANKSEVPLDICTSICKYPDYIKMVSEPYGDSLFFYLRREQMFVRHLFNRAGAVGENVPDDLYIKGSGSTANLASSNYFPTPSGSMVTSDAQIFNKPYWLQRAQGHNNGICWGNQLFVTVVDTTRSTNMSLCAAISTSETTYKNTNFKEYLRHGEEYDLQFIFQLCKITLTADVMTYIHSMNSTILEDWNFGLQPPPGGTLEDTYRFVTSQAIACQKHTPPAPKEDPLKKYTFWEVNLKEKFSADLDQFPLGRKFLLQAGLKAKPKFTLGKRKATPTTSSTSTTAKRKKRKL
notes: major capsid protein L1 (~55 kDa) of human papillomavirus type 16; also called HPV L1; HPV16 VLPs; source: insect cells infected with HPV L1 expressing baculovirus, purified (chromatography and filtration, at least 95% purity); provided by Sino Biological, Inc
  binding result: binds
